Positions count from the first letter of the chain named.
T1: G protein of RSV A/Long (ATCC Cat. No. VR-26), on virus (Respiratory syncytial virus A/Long, UniProt P20895 1-298)
T1 sequence (looked up): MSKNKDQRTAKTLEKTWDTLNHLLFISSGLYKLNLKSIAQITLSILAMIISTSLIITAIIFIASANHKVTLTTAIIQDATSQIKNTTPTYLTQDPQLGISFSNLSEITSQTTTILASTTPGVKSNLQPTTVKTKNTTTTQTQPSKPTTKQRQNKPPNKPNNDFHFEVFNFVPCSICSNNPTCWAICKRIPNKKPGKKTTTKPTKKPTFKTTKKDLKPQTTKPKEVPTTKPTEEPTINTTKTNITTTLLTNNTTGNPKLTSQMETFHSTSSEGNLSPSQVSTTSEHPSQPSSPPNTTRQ

T2: Sym-1705 (RSV-G type A central region peptide 145-201) (Respiratory syncytial virus type A, not fully specified; N-terminal biotin)
T2 construct: Synthetic peptide
T2 peptide: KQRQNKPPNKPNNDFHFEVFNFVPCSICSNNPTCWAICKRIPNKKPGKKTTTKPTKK

T3: Sym-1706 (RSV G central conserved domain (CCD) peptide, type A 145-184) (Respiratory syncytial virus type A, N-terminal biotin)
T3 construct: Synthetic peptide, C-terminally truncated against Sym-1705
T3 peptide: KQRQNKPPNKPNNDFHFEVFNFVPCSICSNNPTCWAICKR

T4: Recombinant RSV attachment protein (G protein) corresponding to RSV B/B1 (Respiratory syncytial virus B/B1, UniProt O36633 65-299)
T4 construct: also called RSV Gb; Gb
T4 sequence: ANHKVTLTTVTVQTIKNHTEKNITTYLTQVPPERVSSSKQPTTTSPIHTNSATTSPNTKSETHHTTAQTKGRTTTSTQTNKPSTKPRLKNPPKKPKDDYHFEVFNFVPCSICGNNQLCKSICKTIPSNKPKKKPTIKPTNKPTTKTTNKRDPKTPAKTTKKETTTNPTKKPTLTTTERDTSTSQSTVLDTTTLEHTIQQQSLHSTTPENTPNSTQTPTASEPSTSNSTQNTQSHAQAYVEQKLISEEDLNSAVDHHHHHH

T5: Sym-1788 (RSV-G type B central region peptide 145-201) (Respiratory syncytial virus type B, N-terminal biotin)
T5 construct: Synthetic peptide
T5 peptide: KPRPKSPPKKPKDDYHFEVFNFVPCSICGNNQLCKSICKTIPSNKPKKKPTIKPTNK

T6: Sym-1789 (RSV-G type B central region peptide 145-184) (Respiratory syncytial virus type B, N-terminal biotin)
T6 construct: Synthetic peptide, C-terminally truncated against Sym-1788
T6 peptide: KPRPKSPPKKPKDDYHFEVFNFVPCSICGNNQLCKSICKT

B1: CB017.5L (antibody, V domains shown)
VH: QVQLVESGGGVVQPGRSLRLSCSASGFTFSVYAMHWVRQAPGQGLEWVAIIWYDGSNKYYADSVKGRFTISRDNSKETLYLQMNSLRVEDTAVYYCARDPIVGHTRDGLDVWGQGTTVTVSS
VL: SYELTQPPSVSVSPGQTARVTCSGDAMAEQYTYWYQQKPGQAPVLIIFKDTERPSGIPERFSGSSSGTTVTLTISGVQTEDEADYYCQSTDSSGTSWVFGGGTKLTVL
notes: Tested as human IgG from the pCP9-lambda vector
B2: CB071.1L (antibody, V domains shown)
VH: QVQLVQSGAEVKKPGSSVRVSCKASGGTFSRYVITWVRQAPGQGLEWMGGSIPIIDTSTYAQKFQDRVTITADKSTSTVYLELSSLRPEDTAIYYCAKVFFFSNSSGPPTEGPAFDVWGQGTMVTVSS
VL: SYELTQPPSVSVSPGQTASITCSGHELGDKYVSWYQQKPGQSPVLLIYQDTNRPAGIPERFSGSNSGSTAFLTISATQAMDEADYYCQAWDNSHVVFGGGTKLTVL
notes: as for B1
B3: CB079.1 (antibody, V domains shown)
VH: EVQLVESGGDLVQPGGSLRLSCSASGFVFTSYSFHWVRQAPGKGLEYVSSVSADGGSTYYADSVRGRFLISRDNSKNTLSLQMSSLRPDDTALYYCVPQPSLLWFGDLRSWGQGTLVTVSS
VL: DIVMTQSPLSLPVTPGEPASISCRSSQSLLHSNGYNYLDWYLQKPGQSPQLLIYLSSNRASGVPDRFSGSGSGTDFTLKISRVEAEDIGIYYCMQSLQTLTFGQGTRLEIK
notes: Tested as human IgG from the pCP9-kappa vector
B4: CB028.1 (antibody, V domains shown)
VH: QVQLVQSGAEVKKPGASVQVSCKTSGYTFSSYGISWVRQAPGQGPEWMGWISTHIGTTNYAQKLQGRVTMTTDTSTTTAYMELRSLRSDDTAVYYCARDLAKWYCSGDTCFCSGGRCYSDHWGQGTLVTVSS
VL: DIQMTQSPSSLSASVGDRVTITCRASQSINDCLNWYQQKPGQAPKLLISAASNLQSGVPSRFSGSGSETDFTLTISSLQPEDFAAYYCQQSFSTPLTFGGGTKVEIK
notes: as for B3
B5: CB047.1 (antibody, V domains shown)
VH: EVQLVESGGGLVQPGGSLRLSCAASGFSFSNYAMSWVRQAPGKGLEWVSDISGSGNSTNFADSVKGRFTISRDNSKNTLYLQMSSLRAEDTAVYYCAKFRVPTYCVNGICYQGLPGFDIWGQGTMVTVSS
VL: DIQMTQSPSSLSASVGDRVTITCQASQDISDYLNWYQQKPGKAPKLLIYDASNLETGVPSRFSASGSGTDFTFTISSLQPEDIATYYCQHYHNLPPLFGGGTKVEIK
notes: as for B3
B6: CB047.2 (antibody, V domains shown)
VH: B5 VH with S28N, G53S, N56K, S57T, F60S, Y80F, E89D
VL: B5 VL with I83F
notes: as for B3
B7: CB065.1 (antibody, V domains shown)
VH: QVQLVESGGGVVQPGRSLRLSCAASGFTFSNYGMHWVRQAPGKGLEWVTIISYDESTTLYADSVKGRFTISRDNSKNTVYLQMNSLRPEDTAVYYCARDHFDPSGYFWYFDLWGRGTLVTVSS
VL: DIVMTQSPLSLSVTPGQPASISCKSSQSLLQRDGKTYLYWYLQKPGQSPQLLIYEVSSRFSGVPDRFSGSGSGTDFTLKISRVEAEDVGVYYCMQGIRLPRTFGQGTKVEIK
notes: as for B3
B8: CB072.1L (antibody, V domains shown)
VH: QLQLQESGPGLVKPSETLSLTCTVSGGSISSNIHYWAWIRQTPGKGLEWIGYMFYGGVAFYNPSLKSRVAISVDTSKNQFSLRLTSASAADTAVYYCARVLVASTNWFDPWGQGTLVTVSS
VL: SYVLTQPPSVSVAPGGTARITCGGDNIGTKGVHWYQQKPGQAPVLVMYYNSDRPTGVPERFSGSNSGNTATLTISRLEAGDEADYYCHVWDSSGSDHVEVFGGGTKLTVL
notes: Tested as human IgG from the pCP9-lambda vector; also called CB072.IL
B9: CB073.1L (antibody, V domains shown)
VH: QVQLVESGGGVVQPGRSLRLSCAASGFTFYNYAVHWVRQAPGKGLEWVAVISHDGVNKDYADSVKGRITLSRDNSKNTVYLQLNSLRPEDTAVYYCARDRSYYFGGSVFHLYFDYWGQGTLVTVSS
VL: QSVLTQPPSVSGAPGQRVIISCTGSSSNIGAGHDVHWYQQLPGTAPRLLIYANTNRPSGVPDRFSASKSGNSASLVITGLQAEDEADYFCQSHDSSLSGVLFGGGTKLTVL
notes: as for B1
B10: CB076.2L (antibody, V domains shown)
VH: QVQLVQSGAEVKKPGSSVKVSCKTSGDTFSNYVVSWVRQAPGQGLEWMGGIIPMFGTTNYAQRFQGRVTISADESTSTAYMEMSSLKSEDTAVYYCARDRYYEVRAGGKVLNTYYYMDVWGKGTTVTVSS
VL: SSELTQDPAVSVALGHTVRITCQGDSLRSYYTNWYQQKPGQAPVLVIFGEDNRPSGIPDRFSGSSSGDTASLTITGTQAEDEADYYCNSRDSSGNLWVFGGGTKLTVL
notes: as for B1
B11: CB017.3L (antibody, V domains shown)
VH: QVQLVESGGGVVQPGGSLRLSCEASGFMFSVYAIHWVRQAPGKGLEWVAVIWHDGSNKYYADSVKGRFTISRDNSKDTMYLQMKTLRVDDTAVYYCARDPIVGSKTDGMDVWGQGTTVTVSS
VL: SYELTQPPSVSVSPGQTARITCSGDALADQYAYWYQQKPGQAPVMVIFKDNERPSGIPERFSGSSSGTTVTLTVSGVQSEDEADYYCQSVDSSGTYWMFGGGTKLTVL
notes: Tested as human IgG expressed in 293-F cells from the pCP9-lambda vector

Molecular target: T1, G protein of RSV A/Long (ATCC Cat. No. …)
Assay: cell-based or functional assay

| Binder | Neutralization IC50, plaque reduction assay, RSV A/Long |
| --- | --- |
| B1 | 3.5 ng/mL |

Molecular target: G protein of RSV B/18537 (ATCC Cat. No. VR-1580), on virus (Respiratory syncytial virus B/18537)
Assay: cell-based or functional assay

| Binder | Neutralization IC50 (ng/mL), plaque reduction assay, RSV B/18537 |
| --- | --- |
| B2 | 5.4 ng/mL |
| B3 | 4.4 ng/mL |
| B4 | 16.3 ng/mL |
| B5 | 4.7 ng/mL |
| B6 | 8.9 ng/mL |
| B7 | 5.1 ng/mL |
| B8 | 2.7 ng/mL |
| B1 | 3.8 ng/mL |
| B9 | 2.9 ng/mL |
| B10 | 5.6 ng/mL |
| B11 | 2 ng/mL |

Molecular target: T2, Sym-1705 (RSV-G type A central region …)
Assay: Octet Red384, streptavidin tips with biotinylated peptide
Procedure: (§1) Binding of the mAbs to the RSV G peptides was also determined using Streptavidin sensor tips on the Octet Red384 (ForteBio).

| Binder | Binding (Octet) [RU] |
| --- | --- |
| B1 | 3.17 RU |

Molecular target: T3, Sym-1706 (RSV G central conserved …)
Assay: as above
Procedure: as §1

| Binder | Binding (Octet) [RU] |
| --- | --- |
| B1 | -0.02 RU |

Molecular target: T4, Recombinant RSV attachment protein (G …)
Assay: ELISA, coated recombinant protein

| Binder | binding result |
| --- | --- |
| B3 | binds |
| B4 | binds |
| B7 | binds |

Molecular target: T2, Sym-1705 (RSV-G type A central region …)
Assay: ELISA, antibody titrated on biotinylated peptide on avidin plate

| Binder | IC50 |
| --- | --- |
| B1 | ~20 ng/mL |

Molecular target: T3, Sym-1706 (RSV G central conserved …)
Assay: as above

| Binder | IC50 |
| --- | --- |
| B1 | ~20 ng/mL |

Molecular target: T2, Sym-1705 (RSV-G type A central region …)
Assay: ELISA, biotinylated peptide on avidin plate

| Binder | binding result |
| --- | --- |
| B2 | binds |
| B3 | binds |
| B4 | binds |
| B5 | binds |
| B6 | binds |
| B7 | binds |
| B8 | binds |
| B9 | binds |
| B10 | binds |
| B11 | binds |

Molecular target: T5, Sym-1788 (RSV-G type B central region …)
Assay: ELISA, biotinylated peptide on avidin plate

| Binder | binding result |
| --- | --- |
| B3 | binds |
| B4 | binds |
| B7 | binds |

Molecular target: T6, Sym-1789 (RSV-G type B central region …)
Assay: ELISA, biotinylated peptide on avidin plate

| Binder | binding result |
| --- | --- |
| B2 | binds |
| B3 | binds |
| B4 | binds |
| B5 | binds |
| B6 | binds |
| B7 | binds |
| B8 | binds |
| B9 | binds |
| B10 | binds |

Molecular target: T3, Sym-1706 (RSV G central conserved …)
Assay: ELISA, biotinylated peptide on avidin plate

| Binder | binding result |
| --- | --- |
| B2 | binds |
| B3 | binds |
| B4 | binds |
| B5 | binds |
| B6 | binds |
| B7 | binds |
| B8 | binds |
| B9 | binds |
| B10 | binds |
| B11 | binds |
